Experimental data from paper PMC9288967.

Target: SARS-CoV-2 spike RBD (wild type) (SARS-CoV-2) (UniProt P0DTC2)
Experiment: BLI

Which Kd does the source give for mNb6(108FFY) (VHH) here?
The Kd was 0.91 nM.
